These results are taken from the Immune Epitope Database (IEDB).

Among the targets are HLA-B*57:01; HLA-B*07:02; HLA-B*44:03; HLA-A*02:01; HLA-B*53:01; HLA-B*35:01.
Experiment in all cases: IEDB peptide-MHC binding, purified MHC/competitive/radioactivity; ≥ and ≤ were set here for values at or beyond the usual limits of such assays
What all share (conditions): source organism: Bordetella pertussis

pIC50: −log10 of the molar value.

As a reminder, the pIC50 is −log10 of the IC50, conventionally taken in molar units. VGGGEHGRW: the pIC50 with HLA-B*57:01 is 4.24.

For the sequence TAFMSGRSL, in the experiment with HLA-B*07:02, the pIC50 is 4.25.

For the sequence YEAGFSLGS, the pIC50 with HLA-B*44:03 is 4.45.

In the case of FQTYALTGI, in the experiment with HLA-A*02:01, the pIC50 was 5.88.

For LPSIPGTSI, in the experiment with HLA-B*07:02, the pIC50 is 6.94.

Turning to NPGSLIAEV, in the experiment with HLA-B*53:01, the pIC50 was 4.23.

Take RSRVRALAW: the pIC50 with HLA-B*57:01 was 7.92.

Turning to TSKQDERNY, the pIC50 with HLA-B*57:01 is at most 4.15.

Regarding PAVALPRPL, in the experiment with HLA-B*07:02, the pIC50 is at most 4.11.

As to DGPPSRPTT, the pIC50 in the experiment with HLA-B*44:03 was at most 4.15.

Take QAAPLSITL: the pIC50 with HLA-B*35:01 and with HLA-B*53:01 was 5.35 each time.
